B1: Serine/threonine-protein kinase A-Raf, residues 21 to 89; numbered along this chain, P10398 (parent)
chain: VKVYLPNKQRTVVTVRDGMSVYDSLDKALKVRGLNQDCCVVYRLIKGRKTVTAWDTAIAPLDGEELIVE

± gives the uncertainty stated by the source.

The variants in the data set derive from B1. Description: abundance fitness (aPCA) (normalised: wild type 0, dead -1); higher = more abundant; growth selection in yeast, the domain comes from the species named. The following applies: Homo sapiens.
In the case of Q36D, the abundance fitness is -0.582 ± 0.31. For the variant G63H, the abundance fitness is -0.63 ± 0.47.

G63W: the abundance fitness is -0.78 ± 0.12. In the case of G18Y, the abundance fitness is -0.638 ± 0.2. To G18P belongs -0.659 ± 0.099. As to D26V, the abundance fitness is -0.065 ± 0.051.

Consider V1R, for which the abundance fitness is -0.487 ± 0.48. In the case of V1A, the abundance fitness was -0.684 ± 0.21. N35V: the abundance fitness is -0.161 ± 0.053. In the case of N35L, the abundance fitness is -0.32 ± 0.044. To N35E belongs 0.016 ± 0.068. To R32Q belongs 0.065 ± 0.044; to R32D, -0.487 ± 0.34; to R32W, -0.203 ± 0.057.

Regarding R32S, the abundance fitness was -0.141 ± 0.058. To R32L belongs 0.046 ± 0.07; to K8T, -0.286 ± 0.052; to K8A, -0.042 ± 0.048. The figure for K8Q is -0.031 ± 0.054. The figure for K8C is -0.243 ± 0.068; for E65P it is -0.26 ± 0.12; for E65Y it is -0.305 ± 0.19. As to E65S, the abundance fitness was -0.124 ± 0.092. As to E65A, the abundance fitness is -0.044 ± 0.078. The figure for P60L is 0.001 ± 0.045; for P60T it is 0.027 ± 0.078; for D37P it is -0.662 ± 0.26. As to D37R, the abundance fitness was -0.198 ± 0.059.

As to D37E, the abundance fitness is -0.141 ± 0.15. Consider D37V, for which the abundance fitness was -0.755 ± 0.13. On to D37H, for which the abundance fitness is -0.097 ± 0.1. In the case of D37M, the abundance fitness was -0.499 ± 0.098. Regarding T52H, the abundance fitness was -0.625 ± 0.21.

For the variant T52Y, the abundance fitness is -0.188 ± 0.11. The figure for T52G is -0.956 ± 0.11.

For the variant G33Y, the abundance fitness is -0.894 ± 0.32. Regarding G33R, the abundance fitness was -0.712 ± 0.081. To V15N belongs -0.408 ± 0.13; to V15M, -0.234 ± 0.082; to L29W, -0.601 ± 0.07. Consider L29I, for which the abundance fitness was -0.907 ± 0.34. As to R48F, the abundance fitness is -0.216 ± 0.18. Turning to R48T, the abundance fitness was -0.072 ± 0.1. Consider W54Y, for which the abundance fitness was -0.756 ± 0.2. The figure for W54E is -0.96 ± 0.13; for W54R it is -0.879 ± 0.1.

With L5K, the abundance fitness was -0.99 ± 0.16. To L5E belongs -0.844 ± 0.21. Consider Y22A, for which the abundance fitness amounted to 0.056 ± 0.058. The figure for Y22T is -0.383 ± 0.13; for Y22S it is 0.094 ± 0.053; for K46C it is -0.133 ± 0.11.

Take K46W: the abundance fitness is -0.667 ± 0.093. K46S: the abundance fitness was -0.08 ± 0.058. As to K46A, the abundance fitness was determined as 0.001 ± 0.037. As to A28T, the abundance fitness was -0.206 ± 0.098. The figure for A28S is -0.263 ± 0.067; for A28M it is -0.037 ± 0.087; for A28L it is 0.029 ± 0.044. In the case of V21Q, the abundance fitness was -0.834 ± 0.25. As to V21L, the abundance fitness is 0.093 ± 0.049.

Regarding R43S, the abundance fitness is -0.305 ± 0.061. The figure for R43N is -0.602 ± 0.43; for R43T it is -0.225 ± 0.067; for R43L it is -0.963 ± 0.12. The figure for T14N is -0.097 ± 0.12.

As to T14L, the abundance fitness was -0.172 ± 0.058. Take K49A: the abundance fitness is -0.516 ± 0.083. The figure for E69K is -0.6 ± 0.4; for E69Q it is -0.6 ± 0.17. The figure for E69I is -0.81 ± 0.33; for K30N it is -0.478 ± 0.29; for K30W it is -0.969 ± 0.15. To K30Q belongs -0.217 ± 0.063; to K30R, -0.006 ± 0.032.

For M19Q, the abundance fitness was 0.011 ± 0.08. On to M19G, for which the abundance fitness was -0.216 ± 0.064. Regarding M19L, the abundance fitness is -0.154 ± 0.049. Turning to M19E, the abundance fitness is -0.013 ± 0.078. To M19K belongs -0.223 ± 0.1; to A59M, 0.078 ± 0.06.

With A59V, the abundance fitness is -0.122 ± 0.041. As to A59R, the abundance fitness was -0.007 ± 0.043. For T11Y, the abundance fitness was -0.351 ± 0.1. To T11C belongs -0.064 ± 0.12; to T11L, 0.052 ± 0.047; to Y4M, 0.032 ± 0.06. The figure for Y4V is 0.011 ± 0.047; for Y4T it is -0.101 ± 0.061; for Y4P it is -0.96 ± 0.23. With Y4L, the abundance fitness stood at 0.068 ± 0.042. To Y4D belongs -0.601 ± 0.11; to V13T, -0.864 ± 0.25; to V13M, -0.892 ± 0.19. To V12K belongs -0.111 ± 0.055.

V12L: the abundance fitness was -0.189 ± 0.041. The figure for D23H is -0.345 ± 0.26.

As to V31C, the abundance fitness is -0.103 ± 0.086. Regarding D55G, the abundance fitness was -0.204 ± 0.029. To D55T belongs -0.335 ± 0.053; to D55S, -0.168 ± 0.036. To D55M belongs -0.557 ± 0.064.

As for L44P, the abundance fitness was -0.853 ± 0.17. The figure for S24M is -0.04 ± 0.075; for I45W it is -0.1 ± 0.073. For I45Q, the abundance fitness is -0.078 ± 0.087. As to N7A, the abundance fitness was -0.44 ± 0.041.

For the variant N7H, the abundance fitness is -0.272 ± 0.065. To L34A belongs -1.02 ± 0.17; to L34T, -1.05 ± 0.23. As for L34V, the abundance fitness is -1 ± 0.15. Regarding L25V, the abundance fitness is -0.54 ± 0.052. To L25R belongs -0.924 ± 0.082; to P6Q, -0.363 ± 0.17; to S20L, -0.91 ± 0.093.

For the variant D62K, the abundance fitness is -0.097 ± 0.077. On to D62T, for which the abundance fitness was -0.111 ± 0.056. Regarding D62I, the abundance fitness is -0.015 ± 0.12.

For D62M, the abundance fitness was -0.062 ± 0.087.

On to V51I, for which the abundance fitness was found to be 0.102 ± 0.13. On to V51P, for which the abundance fitness is 0.031 ± 0.077. The figure for I58F is -0.021 ± 0.12; for I58G it is -0.725 ± 0.094; for I58P it is -0.872 ± 0.21. For the variant I58D, the abundance fitness was -0.881 ± 0.34.

In the case of I58S, the abundance fitness is -0.278 ± 0.068.

As to I58L, the abundance fitness is -0.015 ± 0.039. To I58N belongs -0.858 ± 0.45; to D17W, -0.304 ± 0.052; to D17H, -0.279 ± 0.15. With K2P, the abundance fitness is -0.528 ± 0.12. With K2Q, the abundance fitness was -0.32 ± 0.062. To K2E belongs -0.379 ± 0.06; to K2S, -0.172 ± 0.091.

As for C39R, the abundance fitness is -0.987 ± 0.2. To C39V belongs -0.161 ± 0.066. The figure for V40Y is -0.273 ± 0.093; for V40F it is -0.828 ± 0.14. Take Q9A: the abundance fitness is -0.198 ± 0.047. The figure for Q9D is 0.028 ± 0.094; for Q9S it is -0.11 ± 0.059; for Q9Y it is -0.458 ± 0.3.

Q9V: the abundance fitness was -0.035 ± 0.046.

Q9T: the abundance fitness was -0.209 ± 0.069. With Q9W, the abundance fitness is -0.448 ± 0.064. With Q9N, the abundance fitness is -0.332 ± 0.17. Consider Q9H, for which the abundance fitness is -0.559 ± 0.28. The figure for G47C is -0.826 ± 0.17; for G47P it is -0.959 ± 0.19; for L61I it is -0.206 ± 0.28. Consider L61W, for which the abundance fitness was -0.297 ± 0.078. With L61D, the abundance fitness was -0.365 ± 0.23.

Take I67F: the abundance fitness came out at 0.252 ± 0.13.

As for R16T, the abundance fitness is -0.086 ± 0.063. Consider R10I, for which the abundance fitness stood at 0.258 ± 0.11.

As for V41H, the abundance fitness was -0.641 ± 0.25. To V41W belongs -0.549 ± 0.1; to V41R, -0.559 ± 0.099. To V41D belongs -0.841 ± 0.19; to Y42R, -1.15 ± 0.23. The figure for Y42L is -1.02 ± 0.17. V3W: the abundance fitness is -0.877 ± 0.1.

For V3P, the abundance fitness was -1.01 ± 0.13. Regarding V3M, the abundance fitness is -0.814 ± 0.18. To V3R belongs -0.808 ± 0.089; to A53E, 0.08 ± 0.072. The figure for A53C is -0.166 ± 0.11.
